Here are results for ten molecules from patent publication US20220332795A1 (ARO BIOTHERAPEUTICS, published 2022).

In experiment [1] the target is T1, human CD71 extracellular domain (human, UniProt P02786 89-760, biotinylated).
T1 construct: extracellular domain; also called hCD71; huCD71 ECD
Description: solution ELISA screen (luminescence). (In an ELISA, binding on a coated surface is turned into a signal by an enzyme label.)

Experiment [2] has as its target T2, CD71 apical domain (human, UniProt P02786 189-383, limits assumed).
T2 construct: domain: apical domain
Description: solution ELISA screen (luminescence).

Experiment [3] deals with T1, human CD71 extracellular domain. Description: solution ELISA screen, signal ratio to HSA control.
For experiment [4], the target named is T2, CD71 apical domain. The experiment in a line: solution ELISA screen, signal ratio to HSA control.

T1 sequence (P02786 other isoform, or with tags, fused parts or gaps): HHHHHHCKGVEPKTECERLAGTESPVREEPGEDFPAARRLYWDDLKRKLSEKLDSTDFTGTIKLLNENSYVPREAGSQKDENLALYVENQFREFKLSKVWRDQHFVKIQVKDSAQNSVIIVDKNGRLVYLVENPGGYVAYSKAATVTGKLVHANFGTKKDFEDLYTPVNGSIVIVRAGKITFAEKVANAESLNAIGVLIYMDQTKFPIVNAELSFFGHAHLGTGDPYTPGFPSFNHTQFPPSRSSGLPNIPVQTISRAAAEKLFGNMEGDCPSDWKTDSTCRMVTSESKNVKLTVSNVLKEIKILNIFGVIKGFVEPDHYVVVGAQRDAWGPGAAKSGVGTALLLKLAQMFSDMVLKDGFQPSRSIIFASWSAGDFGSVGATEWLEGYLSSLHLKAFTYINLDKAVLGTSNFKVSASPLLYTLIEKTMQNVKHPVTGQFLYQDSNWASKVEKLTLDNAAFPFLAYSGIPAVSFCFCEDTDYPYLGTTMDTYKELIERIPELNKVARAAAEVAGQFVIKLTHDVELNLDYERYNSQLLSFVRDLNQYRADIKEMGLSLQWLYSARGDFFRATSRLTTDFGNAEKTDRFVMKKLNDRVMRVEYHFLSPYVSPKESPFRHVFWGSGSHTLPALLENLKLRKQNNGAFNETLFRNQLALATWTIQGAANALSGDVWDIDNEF
T2 sequence (P02786 189-383 limits assumed): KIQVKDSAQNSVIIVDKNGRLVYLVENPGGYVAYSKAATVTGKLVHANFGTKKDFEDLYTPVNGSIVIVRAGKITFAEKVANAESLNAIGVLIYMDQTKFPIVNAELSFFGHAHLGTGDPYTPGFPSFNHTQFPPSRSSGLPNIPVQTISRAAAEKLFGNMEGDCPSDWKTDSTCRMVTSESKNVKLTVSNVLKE

B1: SEQ ID NO 205 (designed binder, not shown: small tags and cut ends)
chain: MLPAPKNLVVSRVTEDSARLSWTAPDAAFDSFFIGYLEPQPPGEAILLGVPGSERSYDLTGLKPGTEYNVTIQGVKGGFPSMPLHPLVALFTT
Turning to B1, the RLU is 2.81e+06 RLU in experiment [1] and 150000 RLU in experiment [2]. Also, the “hCD71:HSA” value in experiment [3] was 18.1 ratio. Further, the “apical domain:HSA” value in experiment [4] was 1 ratio.

B2: SEQ ID NO 213 (designed binder, not shown: small tags and cut ends)
chain: MLPAPKNLVVSRVTEDSARLSWTAPDAAFDSFYIAYAEPRPDGEAILLGVPGSERSYDLTGLKPGTEYSVLIHGVKGGLLSSPLFTT
As for B2, the RLU in experiment [1] is 1.73e+06 RLU; in experiment [2] it was 2.03e+06 RLU. In addition, in experiment [3], the “hCD71:HSA” value came to 24.6 ratio. For the same molecule, in experiment [4], the “apical domain:HSA” value came out at 28.9 ratio.

B3: SEQ ID NO 268 (designed binder, not shown: small tags and cut ends)
chain: MLPAPKNLVVSRVTEDSARLSWTAPDAAFDSFYIAYAEPRPDGEAIYLEVPGSERSYDLTGLKPGTEYSVLIHGVKGGLLSSPLFTT
Consider B3, for which the RLU in experiment [1] was found to be 2.77e+06 RLU; in experiment [2], 94800 RLU. Also, the “hCD71:HSA” value in experiment [3] is 23.6 ratio. Besides, the “apical domain:HSA” value in experiment [4] stood at 0.8 ratio.

B4: SEQ ID NO 270 (designed binder, not shown: small tags and cut ends)
chain: MLPAPKNLVVSRVTEDSARLSWTAPDAAFDSFAIEYCETKMCGEAIVLTVPGSERSYDLTGLKPGTEYRVPIPGVKGGTASLPLSAIFTT
Regarding B4, the RLU in experiment [1] amounted to 3.32e+06 RLU; in experiment [2], 6.49e+06 RLU. Moreover, in experiment [3], the “hCD71:HSA” value is 51.6 ratio. For the same molecule, the “apical domain:HSA” value in experiment [4] was found to be 101 ratio.

B5: SEQ ID NO 251 (designed binder, not shown: small tags and cut ends)
chain: MLPAPKNLVVSRVTEDSARLSWTAPDAAFDSFFIGYLEPQPPGEAIGLWVPGSERSYDLTGLKPGTEYNVTIQGVKGGFPSDPLQAVFTT
On to B5, for which the RLU in experiment [1] came out at 2.51e+06 RLU; in experiment [2], 5.73e+06 RLU. The “hCD71:HSA” value in experiment [3] was found to be 96.1 ratio. Moreover, the “apical domain:HSA” value in experiment [4] was 220 ratio.

B6: SEQ ID NO 210 (designed binder, not shown: small tags and cut ends)
chain: MLPAPKNLVVSRVTEDSARLSWTAPDAAFDSFFIGYLEPQPPGEAINLQVPGSERSYDLTGLKPGTEYNVTIQGVKGGFPSFPLSAVFTT
For B6, the RLU in experiment [1] is 2.41e+06 RLU; in experiment [2], 4.12e+06 RLU. For the same molecule, the “hCD71:HSA” value in experiment [3] amounted to 49.7 ratio. The “apical domain:HSA” value in experiment [4] came out at 85 ratio.

B7: SEQ ID NO 203 (designed binder, not shown: small tags and cut ends)
chain: MLPAPKNLVVSRVTEDSARLSWTAPDAAFDSFFIGYLEPQPPGEAIVLLVPGSERSYDLTGLKPGTEYNVTIQGVKGGFPSVPLAAFFTT
Turning to B7, the RLU in experiment [1] was 2.38e+06 RLU; in experiment [2], 5.69e+06 RLU. In addition, the “hCD71:HSA” value in experiment [3] amounted to 91.6 ratio. Moreover, in experiment [4], the “apical domain:HSA” value came out at 219 ratio.

B8: SEQ ID NO 208 (designed binder, not shown: small tags and cut ends)
chain: MLPAPKNLVVSRVTEDSARLSWTAPDAAFDSFFIGYLEPQPPGEAIVLAVPGSERSYDLTGLKPGTEYNVTIQGVKGGFPSYPLVAAFTT
Regarding B8, the RLU is 3e+06 RLU in experiment [1] and 3.7e+06 RLU in experiment [2]. Moreover, the “hCD71:HSA” value in experiment [3] came to 184 ratio. The “apical domain:HSA” value in experiment [4] was determined as 226 ratio.

B9: SEQ ID NO 204 (designed binder, not shown: small tags and cut ends)
chain: MLPAPKNLVVSRVTEDSARLSWTAPDAAFDSFFIGYLEPQPPGEAILLWVPGSERSYDLTGLKPGTEYNVTIQGVKGGFPSQFTT
In the case of B9, the RLU in experiment [1] came to 3.29e+06 RLU; in experiment [2] it was 6.35e+06 RLU. The “hCD71:HSA” value in experiment [3] was 164 ratio. In addition, the “apical domain:HSA” value in experiment [4] was 317 ratio.

B10: SEQ ID NO 232 (designed binder, not shown: small tags and cut ends)
chain: MLPAPKNLVVSRVTEDSARLSWTAPDAAFDSFFIGYLEPQPPGEAIYLDVPGSERSYDLTGLKPGTEYNVTIQGVKGGFPSTFTT
Take B10: the results for the RLU in experiment [1] and in experiment [2] were 1.08e+06 RLU and 95400 RLU, respectively. Further, in experiment [3], the “hCD71:HSA” value was found to be 14.3 ratio. Moreover, the “apical domain:HSA” value in experiment [4] was determined as 1.3 ratio.
